T1: FcRL3, overexpressed on 3T3 cells (UniProt Q96P31 18-734, limits assumed)
T1 construct: whole, on cells
T1 sequence (looked up): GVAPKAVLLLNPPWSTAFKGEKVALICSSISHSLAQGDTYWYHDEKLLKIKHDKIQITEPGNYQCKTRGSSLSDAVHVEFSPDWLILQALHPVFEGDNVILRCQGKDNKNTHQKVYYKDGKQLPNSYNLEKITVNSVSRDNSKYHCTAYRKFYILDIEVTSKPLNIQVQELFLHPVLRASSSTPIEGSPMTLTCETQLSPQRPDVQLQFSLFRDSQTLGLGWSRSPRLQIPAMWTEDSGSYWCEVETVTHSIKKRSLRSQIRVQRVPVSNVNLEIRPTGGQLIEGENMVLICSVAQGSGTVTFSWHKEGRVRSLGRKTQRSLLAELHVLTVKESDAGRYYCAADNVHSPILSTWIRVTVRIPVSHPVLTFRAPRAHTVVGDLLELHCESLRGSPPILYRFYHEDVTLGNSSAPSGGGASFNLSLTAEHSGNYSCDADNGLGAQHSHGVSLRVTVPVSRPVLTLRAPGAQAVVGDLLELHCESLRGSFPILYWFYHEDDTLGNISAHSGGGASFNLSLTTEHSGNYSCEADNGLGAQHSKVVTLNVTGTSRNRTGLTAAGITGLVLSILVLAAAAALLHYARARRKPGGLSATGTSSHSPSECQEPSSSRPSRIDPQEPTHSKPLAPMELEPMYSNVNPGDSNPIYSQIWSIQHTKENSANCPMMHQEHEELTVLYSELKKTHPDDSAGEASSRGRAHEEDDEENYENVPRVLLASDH

T2: FcRL2, overexpressed on 3T3 cells (UniProt Q96LA5 20-508, limits assumed)
T2 construct: whole, on cells
T2 sequence (looked up): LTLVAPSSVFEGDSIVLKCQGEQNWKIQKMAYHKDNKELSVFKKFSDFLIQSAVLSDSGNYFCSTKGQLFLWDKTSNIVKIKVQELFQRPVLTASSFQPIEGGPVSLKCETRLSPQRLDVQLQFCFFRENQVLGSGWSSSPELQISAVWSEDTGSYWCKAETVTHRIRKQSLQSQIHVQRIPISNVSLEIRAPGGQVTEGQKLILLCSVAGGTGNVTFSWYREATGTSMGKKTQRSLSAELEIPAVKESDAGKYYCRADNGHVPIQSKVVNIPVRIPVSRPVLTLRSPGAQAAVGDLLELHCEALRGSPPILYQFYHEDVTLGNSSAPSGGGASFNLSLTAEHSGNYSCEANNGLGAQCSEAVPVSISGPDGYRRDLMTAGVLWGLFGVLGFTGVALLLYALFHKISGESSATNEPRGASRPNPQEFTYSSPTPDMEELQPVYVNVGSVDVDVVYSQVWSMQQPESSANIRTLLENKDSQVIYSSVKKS

T3: Fc Receptor-like 5 (FcRL5), full length, overexpressed on 3T3 or Raji cells (human, UniProt Q96RD9 16-977)
T3 construct: also called 3T3-FcRL5
T3 sequence: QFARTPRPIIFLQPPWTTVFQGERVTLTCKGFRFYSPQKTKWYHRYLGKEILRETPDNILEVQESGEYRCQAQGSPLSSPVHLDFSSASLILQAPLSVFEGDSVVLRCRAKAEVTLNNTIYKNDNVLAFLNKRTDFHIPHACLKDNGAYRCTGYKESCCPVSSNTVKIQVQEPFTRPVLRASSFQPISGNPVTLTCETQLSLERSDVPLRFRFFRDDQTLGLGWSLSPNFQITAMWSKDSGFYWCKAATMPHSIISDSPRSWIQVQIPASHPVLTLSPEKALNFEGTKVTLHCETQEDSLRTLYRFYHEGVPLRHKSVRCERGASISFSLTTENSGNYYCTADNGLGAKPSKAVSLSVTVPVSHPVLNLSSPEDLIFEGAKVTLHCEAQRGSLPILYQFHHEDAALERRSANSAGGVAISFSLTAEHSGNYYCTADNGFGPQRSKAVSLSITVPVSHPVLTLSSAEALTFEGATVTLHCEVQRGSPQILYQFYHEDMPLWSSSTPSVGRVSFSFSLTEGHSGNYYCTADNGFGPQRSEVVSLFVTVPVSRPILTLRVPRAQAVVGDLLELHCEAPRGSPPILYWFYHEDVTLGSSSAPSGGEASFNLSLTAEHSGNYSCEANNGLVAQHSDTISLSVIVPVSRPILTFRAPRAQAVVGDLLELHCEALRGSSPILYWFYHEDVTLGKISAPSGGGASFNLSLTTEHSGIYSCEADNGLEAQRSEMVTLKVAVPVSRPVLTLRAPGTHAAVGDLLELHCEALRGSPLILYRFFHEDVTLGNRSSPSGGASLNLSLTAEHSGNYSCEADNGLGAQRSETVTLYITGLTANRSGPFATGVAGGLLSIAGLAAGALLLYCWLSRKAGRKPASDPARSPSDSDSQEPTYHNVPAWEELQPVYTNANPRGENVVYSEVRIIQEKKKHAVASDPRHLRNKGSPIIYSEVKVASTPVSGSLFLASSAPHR

T4: FcRL1, overexpressed on 3T3 cells (UniProt Q96LA6 17-429, limits assumed)
T4 construct: whole, on cells
T4 sequence (looked up): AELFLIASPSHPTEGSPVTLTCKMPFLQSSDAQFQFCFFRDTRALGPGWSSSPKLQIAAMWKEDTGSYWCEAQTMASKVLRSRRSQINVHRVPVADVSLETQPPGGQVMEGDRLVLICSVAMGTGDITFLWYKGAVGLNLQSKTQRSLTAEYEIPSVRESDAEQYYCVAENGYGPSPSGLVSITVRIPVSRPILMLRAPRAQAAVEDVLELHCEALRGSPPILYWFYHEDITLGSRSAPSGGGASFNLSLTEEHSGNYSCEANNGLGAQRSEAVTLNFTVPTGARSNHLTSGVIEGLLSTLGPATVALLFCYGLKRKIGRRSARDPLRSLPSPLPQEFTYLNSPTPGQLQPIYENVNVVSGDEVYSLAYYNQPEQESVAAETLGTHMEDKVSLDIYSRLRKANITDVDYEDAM

B1: ET200-031 (scFv)
scFv: SYVLTQPPSVSVAPGKTARITCGGNNIGSKSVHWYQQKPGQAPVLVIYYDSDRPSGIPERFSGSNSGNTATLTISRVEAGDEADYYCQVWDSSSDYVFGTGTKVTVLGSRGGGGSGGGGSGGGGSLEMAEVQLVETGGGLVKPGGSLRLSCAASGFTVSDYYMSWIRQAPGKGLEWISYISGSGNSIYYADSVKGRFTISRDNAKNSLDLQMTSLRAEDTAVYYCARSTKFDYWGQGTLVTVSSTSGQAGQHHHHHHGAYPYDVPDYAS
notes: screened as phage clone; entry is VL-linker-VH-His tag-HA tag; also called ET200-31
B2: ET200-029 (scFv)
scFv: QAVLTQPPSVSVAPGKTARVTCGGNNIGSESVHWYQQKPGQAPVLVIYYDTDRPSGIPERFSGSHSGTTATLTISRVEAGDEADYYCQVWDSSRDHVVFGGGTKLTVLGSRGGGGSGGGGSGGGGSLEMAQVQLVQSGGGVVQPGRSLRLSCAASGFTFSSYAMHWVRQAPGKGLEWVAVISYDGSNKYYADSVKGLFTISRDNSKNTLYLQMNSLRAEDTAVYYCARSYFTSGFYDYWGQGTLVTVSSTSGQAGQHHHHHHGAYPYDVPDYAS
notes: screened as phage clone; entry is VL-linker-VH-His tag-HA tag
B3: ET200-033 (scFv)
scFv: NFMLTQPHSVSESPGKTVTISCTGSSGSIASNYVQWYQQRPGSAPTTVIYEDNQRPSGVPDRFSGSIDSSSNSASLTISGLKTEDEADYYCQSYDSSNHWVFGGGTKLTVLGSRGGGGSGGGGSGGGGSLEMAQVQLQQWGAGLLKPSETLSLTCAVYGGSFSGYYWSWIRQPPGKGLEWIGEITHSGRSNYNPSLKSRVTISVDTSKNQFSLKLSSVTAADTAVYYCARSSIMSDYWGQGTLVTVSSTSGQAGQHHHHHHGAYPYDVPDYAS
notes: as for B2
B4: ET200-032 (scFv)
scFv: LPVLTQPPSASGTPGQRVTISCSGSSSNVGSYTVNWYRQLPGTAPTLLIYNNNQRPSGVPDRFSDSKSGTSASLTISGLQPEDEADYYCAAWDDRLGGYVFGTGTKVTVLGSRGGGGSGGGGSGGGGSLEMAEVQLVQSGAEVKKPGESLKISCKGSGYSFTNYWIGWVRQMPGKGLEWMGIIYPGDSDTRYSPSFQGQVTISADKSISTAYLQWSSLKASDTAMYYCARSTGSSHMSDEWGQGTLVTVSSTSGQAGQHHHHHHGAYPYDVPDYAS
notes: as for B2
B5: ET200-034 (scFv)
scFv: QSVLTQPPSVSGAPGQRVTISCTGSTSNIGAGYDVHWYQQLPGTAPKLLINNNRNRPSGVPDRFSGSKSGTSATLGITGLQTGDEADYYCGTWDGSLTGAVFGGGTKLTVLGSRGGGGSGGGGSGGGGSLEMAEVQLVQSGAEVKKPGSSVKVSCKASGGTFSSYAISWVRQAPGQGLEWMGGIIPIFGTANYAQKFQGRVTITADESTSTAYMELSSLRSEDTAVYYCARGSALDHYDRWGQGTLVTVSSTSGQAGQHHHHHHGAYPYDVPDYAS
notes: as for B2
B6: ET200-002 (scFv)
scFv: NFMLTQPHSVSESPGKTVTISCTRSSGSIASNYVQWYQQRPGSAPTTVIYEDNQRPSGVPDRFSGSIDSSSNSASLTISGLKTEDEADYYCQSYDSSNSVVFGGGTKLTVLGSRGGGGSGGGGSGGGGSLEMAQVQLVQSGTEVKKPGASVRVACKASGYPFNKYDINWVRQAPGQGLEWMGGIIPIFRTTNYAQKFQGRVTITADESTSTAYMELSSLRSEDTAVYYCAREWFYWDIWGQGTLVTVSSTSGQAGQHHHHHHGAYPYDVPDYAS
notes: as for B2
B7: ET200-030 (scFv)
scFv: QSVVTQPPSVSGAPGQRVTISCTGSSSNIGAGYDVNWYQQFPGTAPKLLIYGNSNRPSGVPDRFSGSKSGTSASLAITGLQAEDEADYYCQSYDSSLSGSYVFGTGTKVTVLGSRGGGGSGGGGSGGGGSLEMAQMQLVQSGAEVKKPGASVKVSCKASGYTLTELSMHWVRQAPGKGLEWMGGFDPEDGETIYAQKFQGRVTMTEDTSTDTAYMELSSLRSEDTAVYYCARMSSMYYDWGQGTLVTVSSTSGQAGQHHHHHHGAYPYDVPDYAS
notes: as for B2
B8: ET200-028 (scFv)
scFv: QSVLTQPPAASGTPGQRVTISCSGGVSNIGSGALNWYQQLPGTAPKLLIYSYNQRPSGVSDRFSGSRSATSASLAISGLQSEDEADYYCATWDDSVNGWVFGGGTKLTVLGSRGGGGSGGGGSGGGGSLEMAQVQLVQSGAEVKKPGDSVKVSCKPSGYNFLNYGINWVRQAPGQGLEWMGWISTYTGNTNYAQKLQGRVTFTTDTSTSTAYMEMRSLRSDDTAVYYCARDLYYYEGVDYWGQGTLVTVSSTSGQAGQHHHHHHGAYPYDVPDYAS
notes: as for B2

What was measured:
[1] = target: T1, FcRL3, overexpressed on 3T3 cells; assay: phage clone on 3T3-FcRL3 cells
[2] = target: T2, FcRL2, overexpressed on 3T3 cells; assay: phage clone on 3T3-FcRL2 cells
[3] = target: T3, Fc Receptor-like 5 (FcRL5), full …; assay: phage clone screening on cells
Protocol: Once selected, positive scFv clones are further tested for their binding to FcRL5 (e.g., human FcRL5) on live 3T3 cell surfaces by flow cytometry. Briefly, phage clones are incubated with 3T3 cells over-expressing FcRL5. The cells are washed and then incubated with a mouse anti-M13 coat protein mAb. Cells are washed again and labeled with a PE-horse anti-mouse Ig prior to flow cytometry.
Phage′ display against FcRL5 was performed to enrich for scFv phage clones that bind to FcRL5 specifically. Screening was carried out on FcRL5 overexpressing 3T3 cells or 3T3 cells expressing FcRL1, 2, 3, 4 or 6 as a negative control (FIG. 2).

[4] = target: T4, FcRL1, overexpressed on 3T3 cells; assay: phage clone on 3T3-FcRL1 cells

Binder	binding result [1]	binding result [2]	binding result [3]	binding result [4]
B1	no binding	no binding	binds	no binding
B2	no binding	no binding	binds	no binding
B3	no binding	no binding	binds	no binding
B4	no binding	no binding	binds	no binding
B5	no binding	no binding	binds	no binding
B6	no binding	no binding	binds	no binding
B7	no binding	no binding	binds	no binding
B8	no binding	no binding	binds	no binding

— patent US20210388081A1 (Memorial Sloan Kettering, published 2021)
